{"source": "patent US20040019193A1", "about": "“Mob-5/hmob-5 as a cancer diagnostic marker” (priority 2002, published 2004)", "molecules": {"B1": {"name": "Mob-5-AP: rat Mob-5-alkaline phosphatase fusion protein, secreted, 90 KD (SEQ ID NO: 8) (protein)", "chain": "MQTSLRQQILPGLSLILLVLNQVPELQGQEFRFGPCQVTGVVLPELWEAFWTVKNTVKTQDELTSVRLLKPQVLQNVSDAESCYLAHSLLKFYLNTVFKNYHSKIVKFKVLKSFSTLANNFLVIMSKLQPSKDNAMLPISDSARRRFLLYHRTFKQLDIEVALAKAFGEVDILLAWMQNFYQLGSSGIIPVEEENPDFWNREAAEALGAAKKLQPAQTAAKNLIIFLGDGMGVSTVTAARILKGQKKDKLGPEIPLAMDRFPYVALSKTYNVDKHVPDSGATATAYLCGVKGNFQTIGLSAAARFNQCNTTRGNEVISVMNRAKKAGKSVGVVTTTRVQHASPAGTYAHTVNRNWYSDADVPASARQEGCQDIATQLISNMDIDVILGGGRKYMFPMGTPDPEYPDDYSQGGTRLDGKNLVQEWLAKRQGARYVWNRTELMQASLDPSVTHLMGLFEPGDMKYEIHRDSTLDPSLMEMTEAALRLLSRNPRGFFLFVEGGRIDHGHHESRAYRALTETIMFDDAIERAGQLTSEEDTLSLVTADHSHVFSFGGYPLRGSSIFGLAPGKARDRKAYTVLLYGNGPGYVLKDGARPDVTESESGSPEYRQQSAVPLDEETHAGEDVAVFARGPQAHLVHGVQEQTFIAHVMAFAACLEPYTACDLAPPAGTTDAAHPG"}}, "key": {"[1]": {"system": "mob-5", "assay": "Differential display of Rat-1(ras) cells with or without PD98059", "assay_type": "cell-based", "details": "10 μM for 24 hours", "protocol": "(B) Identification of mob-5 as a gene activated by oncogenic h-ras but inactivated by MAP kinase inhibitor, PD98059. Total cellular RNA from the normal Rat-1 cells and their oncogenic h-ras transformed derivatives Rat-1(ras) treated with or without 10 μM of PD98059 for 24 hours were compared by differential display. The same primer combination as used in (A) identified the mob-5 (arrow) again as a candidate gene activated by ras but inhibited by ras downstream MAP kinase inhibitor.\nRNA purification, automated differential display screening and Northern blot analysis Total RNA from cells were purified using the RNApure reagent following the manufacture instruction (GenHunter Corp., Nashville, Tenn.). DNase I treatment of RNA prior to differential display was carried out using the MessageClean kit (GenHunter Corp., Nashville, Tenn.). Differential display PCR reactions were setup in 96-well PCR plates (Perkin-Elmer) by the Beckman Biomek 2000 automated liquid dispensing workstation using one-base anchored oligo-dT primers and rationally designed arbitrary 13mers (Liang et al., 1994b) from the RNAimage kits (GenHunter Corp., Nashville, Tenn.). The cDNAs were amplified in the presence of ^33P [(α-dATP] (New England Nuclear, Boston, Mass.) using Taq DNA polymerase (Qiagene) and separated on 6 % denaturing polyacrylamide gels (National Diagnostic, Atlanta, Ga.). […]"}, "[2]": {"system": "putative Mob-5 receptor on the cell surface of h-ras transformed RIE cells", "assay": "AP fusion protein receptor binding assay on RIE cells before and after h-ras transformation", "parameters": "species or system rat", "details": "normal versus h-ras transformed RIE cells, media at 0.7 unit/ml", "protocol": "(E) Mob-5-AP, but not hMob-5-AP, binds specifically to the cell surface of oncogenic h-ras transformed RIE cells. Both the normal and oncogenic h-ras transformed RIE cells were analyzed for the ability to bind Mob-5-AP versus AP alone. The same experiment was carried out with hMob-5-AP and AP alone. The cell surface bound AP activity was measured to reveal a species specific Mob-5 binding activity present only on the cell surface of the h-ras transformed RIE cells. The result is representative of at least 3 independent experiments.\nAs in Rat-1 cells, the putative Mob-5 receptor was also found to be differentially expressed between the normal and h-ras transformed RIE cells using Mob-5-AP fusion protein as a ligand (FIG. 4E, left panel). To determine whether hMob-5-AP could also differentially bind to the cell surface of h-ras transformed RIE cells, the receptor binding assay was conducted using hMob-5-AP in place of Mob-5-AP.\nmob-5 expression is activated by both oncogenic h-ras and k-ras in intestinal epithelial cells Cancer arises from the epithelial cells rather than fibroblasts and K-ras mutations have been tightly linked with cancers of gastric intestinal origins (Kiaris and Spandidos, 1995). […] After the final 5 min extension at 72 ° C., the RT-PCR products were analyzed on a 1.5 % agarose gel. […]"}, "[3]": {"system": "putative Mob-5 receptor on the cell surface of h-ras transformed Rat-1 cells", "assay": "Mob-5-AP receptor binding assay on Rat-1 cells before and after h-ras transformation", "details": "normal versus h-ras transformed Rat-1 cells, media at 0.7 unit/ml", "protocol": "Both the normal and oncogenic h-ras transformed Rat-1 cells were analyzed for the ability to bind Mob-5-AP versus AP alone. The cell surface bound AP activity was measured to reveal a Mob-5 mediated-binding activity present only on the cell surface of the h-ras transformed cells. The result is representative of at least 5 independent experiments.\nIdentification of a putative receptor(s) of Mob-5 on the cell surface of h-ras transformed cells Another possible mechanism for Mob-5 function is that Mob-5 acts as an autocrine growth factor downstream of activated Ras. Ras transformed RIE cells can be used in a receptor binding assay. APtag technology (Flanagan and leder, 1990) was employed to create a Mob-5-alkaline phosphatase (AP) fusion protein, which can be used as an affinity agent for the receptor analysis. This strategy has been successfully used to identify and clone a number of important cell surface receptors, including those of leptin (Tartaglia et al., 1995) and semaphorin III (He and Tessier-Lavigne, 1997). Like Mob-5 itself, Mob-5-AP was secreted at high levels in 293T cells stably transfected with the recombinant plasmid. The secreted 90 KD Mob-5-AP can be readily detected from the culture media by either the alkaline phosphatase assay or direct Western blot analysis using anti-Mob-5 antibody (FIG. 4A). […]"}}, "data": [{"molecule": "COc1cccc(-c2cc(=O)c3ccccc3o2)c1N", "note": "[PD98059]", "values": [{"measurement": "mob-5 expression (differential display)", "setting": "[1]", "result": "inactivated"}]}, {"molecule": "B1", "values": [{"measurement": "cell surface binding (bound AP activity) versus AP alone", "setting": "[2]", "result": "binds specifically only to the ras transformed RIE cells"}, {"measurement": "cell surface binding (bound AP activity) versus AP alone", "setting": "[3]", "result": "preferentially bound to the cell surface of the h-ras transformed Rat-1 cells, but not of the parental control"}]}]}
